Test results taken from publication doi:10.1101/2024.01.03.573903v1.

Substrate: Nc1ncnc2c1ncn2[C@@H]1O[C@H](COP(=O)(O)OP(=O)(O)OP(=O)(O)O)[C@@H](O)[C@H]1O
Assay: malachite green phosphate release NTPase assay
Assay type: biochemical, Zika virus
Conditions: no curcumin, 1% DMSO, 80 nM enzyme, Tris pH 7.4, 25 °C

B1: ZIKV NS3 helicase (Zika virus) (protein)
chain: PVECFEPSMLKKKQLTVLDLHPGAGKTRRVLPEIVREAIKKRLRTVILAPTRVVAAEMEEALRGLPVRYMTTAVNVTHSGTEIVDLMCHATFTSRLLQPIRVPNYNLNIMDEAHFTDPSSIAARGYISTRVEMGEAAAIFMTATPPGTRDAFPDSNSPIMDTEVEVPERAWSSGFDWVTDHSGKTVWFVPSVRNGNEIAACLTKAGKRVIQLSRKTFETEFQKTKNQEWDFVITTDISEMGANFKADRVIDSRRCLKPVILDGERVILAGPMPVTHASAAQRRGRIGRNPNKPGDEYMYGGGCAETDEGHAHWLEARMLLDNIYLQDGLIASLYRPEADKVAAIEGEFKLRTEQRKTFVELMKRGDLPVWLAYQVASAGITYTDRRWCFDGTTNNTIMEDSVPAEVWTKYGEKRVLKPRWMDARVCSDHAALKSFKEFAAGKR
With B1 as the protein, how does the Km read?
The Km was 336.3 ± 61.97 µM.

What about the kcat of the same protein?
Its kcat is 1.025 ± 0.06 s⁻¹.
